Assay in all cases: purified protein
Common to all, as to settings: no added Zn(II), 20 mM HEPES pH 7.5, 30°C

Data set [1] has as its system CC1=C(C(=O)O)N2C(=O)[C@@H](NC(=O)[C@H](N)c3ccccc3)[C@H]2SC1.
Data set [2] deals with CC(=O)OCC1=C(C(=O)O)N2C(=O)[C@@H](NC(=O)Cc3cccs3)[C@H]2SC1. The class given is biochemical, Morganella morganii. The text has this:
(§1) steady-state hydrolysis, UV-VIS spectrophotometry on IMP-27

Data set [3] deals with CC(C)(O/N=C(\C(=O)N[C@@H]1C(=O)N2C(C(=O)[O-])=C(C[n+]3ccccc3)CS[C@H]12)c1csc(N)n1)C(=O)O. The class given is biochemical, Morganella morganii.
Excerpt: as §1

In data set [4] the test system is CC1(C)S[C@@H]2[C@H](NC(=O)Cc3ccccc3)C(=O)N2[C@H]1C(=O)O. The class given is biochemical, Morganella morganii.
Excerpt: as §1

The test system of data set [5] is CC1(C)S[C@@H]2[C@H](NC(=O)[C@H](N)c3ccccc3)C(=O)N2[C@H]1C(=O)O. Type of data set: biochemical, Morganella morganii.
Excerpt: as §1

The test system of data set [6] is CO/N=C(\C(=O)N[C@@H]1C(=O)N2C(C(=O)O)=C(COC(C)=O)CS[C@H]12)c1csc(N)n1. The class given is biochemical, Morganella morganii.
Excerpt: as §1

For data set [7], the system named is C[C@@H](O)[C@H]1C(=O)N2C(C(=O)O)=C(S[C@@H]3CN[C@H](C(=O)N(C)C)C3)[C@H](C)[C@H]12. Type of data set: biochemical, Morganella morganii.
Excerpt: as §1

Data set [8] relates to CC(=O)OCC1=C(C(=O)O)N2C(=O)[C@@H](NC(=O)Cc3cccs3)[C@H]2SC1. The class given is biochemical, Serratia marcescens. From the text: (§2) steady-state hydrolysis, UV-VIS spectrophotometry on IMP-1
Data set [9] has as its system CC(C)(O/N=C(\C(=O)N[C@@H]1C(=O)N2C(C(=O)[O-])=C(C[n+]3ccccc3)CS[C@H]12)c1csc(N)n1)C(=O)O. Type of data set: biochemical, Serratia marcescens.
Excerpt: as §2

For data set [10], the system named is CC1(C)S[C@@H]2[C@H](NC(=O)Cc3ccccc3)C(=O)N2[C@H]1C(=O)O. Type of data set: biochemical, Serratia marcescens.
Excerpt: as §2

The subject of data set [11] is CC1(C)S[C@@H]2[C@H](NC(=O)[C@H](N)c3ccccc3)C(=O)N2[C@H]1C(=O)O. Type of data set: biochemical, Serratia marcescens.
Excerpt: as §2

Data set [12] relates to CO/N=C(\C(=O)N[C@@H]1C(=O)N2C(C(=O)O)=C(COC(C)=O)CS[C@H]12)c1csc(N)n1. Type of data set: biochemical, Serratia marcescens.
Excerpt: as §2

In data set [13] the test system is C[C@@H](O)[C@H]1C(=O)N2C(C(=O)O)=C(SCCN=CN)C[C@H]12. Type of data set: biochemical, Serratia marcescens.
Excerpt: as §2

Data set [14] has as its system C[C@@H](O)[C@H]1C(=O)N2C(C(=O)O)=C(S[C@@H]3CN[C@H](C(=O)N(C)C)C3)[C@H](C)[C@H]12. The class given is biochemical, Serratia marcescens.
Excerpt: as §2

The text below walks through data of article PMC11619291, “Functional and structural analyses of IMP-27 metallo-β-lactamase: evolution of IMP-type enzymes to overcome Zn(II) deprivation” (Microbiology Spectrum, 2024).

In general, Km refers to the substrate concentration at which the rate is half of its maximum. The term kcat denotes the maximal rate divided by the concentration of active sites. As usually defined, the kcat/Km is the turnover number divided by the Michaelis constant.

For the substance IMP-27 (Morganella morganii), the Km amounted to 5.47 ± 0.53 µM in data set [1]; 9.23 ± 0.88 µM in [2]; 27.5 ± 3.4 µM in data set [3]; 218 ± 28 µM in data set [4]; 6.57 ± 0.96 µM in data set [6]; 4.21 ± 0.29 µM in [7]. For the same substance, the kcat in data set [1] was 1.19 s⁻¹; in data set [2] it was 290 ± 39 s⁻¹; in data set [3] it was 2.02 ± 0.3 s⁻¹; in data set [4] it was 20.3 ± 2.2 s⁻¹; in data set [5] it was > 7.25 s⁻¹; in [6] it was 50.7 ± 6.6 s⁻¹. In addition, the kcat in [7] is 6.79 ± 0.8 s⁻¹. Besides, the kcat/Km in data set [1] was 217000 M⁻¹ s⁻¹; in [2] it was 3.14e+07 M⁻¹ s⁻¹; in [3], 73200 M⁻¹ s⁻¹; in data set [4], 93200 M⁻¹ s⁻¹; in data set [5] it was 28800 M⁻¹ s⁻¹; in [6] it was 7.72e+06 M⁻¹ s⁻¹. Also, in [7], the kcat/Km came to 1.63e+06 M⁻¹ s⁻¹.

For the substance IMP-1 (Serratia marcescens), the Km in data set [1] came out at 18.5 ± 2.9 µM; in [8] it was 1.62 ± 0.21 µM; in [9], 38.1 ± 1.6 µM; in [10], 144 ± 6 µM; in [11], 41.8 ± 7.6 µM; in [12], 3.44 ± 0.12 µM. The Km was 48.6 ± 10.2 µM in data set [13] and 83.3 ± 16.1 µM in data set [14]. Also, the kcat in data set [1] was determined as 75.1 s⁻¹; in [8] it was 82.5 ± 5.9 s⁻¹; in data set [9], 14.2 ± 0.8 s⁻¹; in data set [10] it was 367 ± 38 s⁻¹; in data set [11], 37.6 ± 3.1 s⁻¹; in [12], 26 ± 1.8 s⁻¹. Moreover, the figures for the kcat in data set [13] and in [14] were 87.6 ± 4.5 s⁻¹ and 25.1 ± 4.4 s⁻¹, respectively. For the same substance, the kcat/Km in data set [1] worked out at 4.06e+06 M⁻¹ s⁻¹; in data set [8], 5.11e+07 M⁻¹ s⁻¹; in [9], 373000 M⁻¹ s⁻¹; in [10], 2.56e+06 M⁻¹ s⁻¹; in data set [11], 899000 M⁻¹ s⁻¹; in data set [12], 7.55e+06 M⁻¹ s⁻¹. The kcat/Km worked out at 1.88e+06 M⁻¹ s⁻¹ in data set [13] and 301000 M⁻¹ s⁻¹ in data set [14].
